In the supplement of paper PMC9876800:

System: peptide library, one residue held at a place counted from the S/T acceptor
Assay: relative phosphorylation of the sub-library (ratio to the mean residue at this position); higher = residue favoured
Summary of the method: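 Relative sub-library phosphorylation is a ratio to the mean residue at the same position. Purified recombinant kinases were incubated under kinase-specific conditions with biotinylated degenerate peptide sub-libraries, each fixing one residue at one position around a central Ser/Thr, using 50 μM peptide and 50 μM ATP spiked with γ-32P-ATP for 90 min. Spots captured on streptavidin membranes were phosphorimaged and quantified by densitometry.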

PRKCZ, construct: Full length, human, sequence (Q05513 whole entry, looked up): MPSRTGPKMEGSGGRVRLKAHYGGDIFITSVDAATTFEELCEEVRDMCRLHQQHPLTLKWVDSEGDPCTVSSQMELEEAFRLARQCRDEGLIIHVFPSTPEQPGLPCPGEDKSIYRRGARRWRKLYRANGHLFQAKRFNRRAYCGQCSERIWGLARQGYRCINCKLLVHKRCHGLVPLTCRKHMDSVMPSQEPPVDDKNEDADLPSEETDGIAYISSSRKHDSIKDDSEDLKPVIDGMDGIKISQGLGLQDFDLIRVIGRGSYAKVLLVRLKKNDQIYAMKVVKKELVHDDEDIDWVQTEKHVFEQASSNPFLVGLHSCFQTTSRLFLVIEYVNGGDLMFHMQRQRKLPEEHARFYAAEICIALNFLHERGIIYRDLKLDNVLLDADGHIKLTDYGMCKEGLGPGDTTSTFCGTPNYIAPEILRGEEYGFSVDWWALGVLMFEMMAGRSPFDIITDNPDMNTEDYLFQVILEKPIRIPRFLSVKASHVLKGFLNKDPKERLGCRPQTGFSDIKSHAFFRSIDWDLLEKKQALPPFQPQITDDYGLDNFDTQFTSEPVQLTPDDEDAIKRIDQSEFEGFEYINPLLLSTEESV

PRKACA, construct: Full length, human (from UniProt P17612)
relative phosphorylation
Conditions	at +1	at +2	at +3	at +4	at -1	at -2	at -3	at -4	at -5
A fixed	0.926	1.32	0.946	0.869	0.966	0.373	0.581	1.11	1.08
D fixed	0.659	1.28	1.04	1.17	0.57	0.148	0.148	0.696	0.581
E fixed	0.547	0.718	0.99	1.26	0.468	0.122	0.159	0.757	0.606
F fixed	1.33	1.06	0.999	0.813	0.713	0.19	0.197	0.637	0.996
G fixed	0.81	1.09	1.06	1.1	1.26	0.308	0.503	1.24	1.19
H fixed	0.909	1.75	1.32	1.13	1.29	0.538	1.14	1.07	1.16
I fixed	1.33	0.697	0.625	0.91	0.334	0.147	0.152	0.606	0.671
K fixed	1.06	0.686	0.888	0.791	1.84	3.87	2.61	1.93	1.86
L fixed	1.41	0.719	0.919	0.885	0.874	0.227	0.152	0.751	0.715
M fixed	1.2	0.772	0.774	0.898	1.07	0.198	0.192	0.837	0.748
N fixed	0.887	1.05	1.11	1.11	1.34	0.299	0.305	0.839	0.894
P fixed	0.293	1.03	1.43	1.52	1.27	0.197	0.63	0.941	0.898
Q fixed	1.03	1.15	1.01	1.07	0.951	0.563	0.644	0.982	0.783
R fixed	1.04	0.818	1.04	0.971	1.76	9.26	8.72	2.43	2.05
V fixed	1.33	0.953	0.696	0.779	0.468	0.155	0.179	0.631	0.744
W fixed	1.27	0.905	1.16	0.999	0.775	0.208	0.324	0.772	1.13
Y fixed	0.967	0.992	1	0.732	1.04	0.199	0.373	0.771	0.892
pThr fixed	0.891	0.743	0.951	1.62	0.312	0.225	0.261	0.625	0.644
pTyr fixed	0.993	1.03	1.14	1.42	0.798	0.214	0.283	0.742	0.703

PRKCD, construct: Full length, human (from UniProt Q05655)
relative phosphorylation
Conditions	at +1	at +2	at +3	at +4	at -1	at -2	at -3	at -4	at -5
A fixed	0.496	0.437	0.73	0.842	0.91	0.9	0.795	1.04	1.04
D fixed	0.253	0.525	0.696	1.03	0.598	0.587	0.699	0.932	1.2
E fixed	0.309	0.317	0.608	0.63	0.465	0.531	0.579	0.972	0.903
F fixed	1.51	0.438	0.642	0.4	0.549	0.621	0.594	0.703	0.815
G fixed	0.553	0.459	1.11	1.28	1.64	1.2	0.977	1.36	1.18
H fixed	0.803	1.39	0.871	1.23	0.961	1.13	1.17	1.14	1.07
I fixed	1.65	0.64	0.781	0.695	0.355	0.466	0.401	0.617	0.809
K fixed	1.74	3.33	2.15	2.05	2.3	1.9	1.91	1.55	1.48
L fixed	1.21	0.564	0.846	0.757	0.658	0.506	0.464	0.608	0.78
M fixed	1.58	0.69	0.801	0.731	0.852	0.677	0.576	0.807	0.657
N fixed	0.685	1	1.04	1.13	1.38	1.22	1.07	1.1	0.932
P fixed	0.343	0.487	0.68	1.54	1.29	0.835	1.12	1.18	1.17
Q fixed	1.18	0.93	1.04	1.19	1.35	1.23	1.01	0.979	0.868
R fixed	1.6	3.33	2.03	1.48	1.74	3.16	3.86	1.58	1.65
V fixed	1.39	0.648	0.742	0.65	0.583	0.522	0.406	0.691	0.769
W fixed	0.743	0.741	1.12	0.746	0.527	0.806	0.658	1.1	0.993
Y fixed	0.961	1.07	1.11	0.625	0.834	0.713	0.707	0.638	0.685
pThr fixed	0.685	0.458	0.52	0.675	0.341	0.563	0.624	0.713	0.644
pTyr fixed	0.469	0.662	0.56	0.396	0.465	0.576	0.541	0.524	0.673

PRKCH, construct: Full length, human (from UniProt P24723)
relative phosphorylation
Conditions	at +1	at +2	at +3	at +4	at -1	at -2	at -3	at -4	at -5
A fixed	0.536	0.49	0.738	0.933	1.07	0.893	0.78	1.1	1.19
D fixed	0.187	0.163	0.449	0.528	0.548	0.496	0.423	0.718	0.638
E fixed	0.282	0.15	0.547	0.496	0.55	0.467	0.469	0.799	0.721
F fixed	1.78	0.68	0.858	0.658	0.632	0.721	0.813	0.773	1.23
G fixed	0.374	0.299	1.06	0.926	1.42	1.13	0.776	1.12	0.955
H fixed	0.661	1.39	1.28	1.45	0.981	1.24	1.39	1.15	1.12
I fixed	1.47	0.622	0.754	0.632	0.397	0.405	0.444	0.614	0.818
K fixed	1.86	3.28	2.09	2.44	1.98	1.9	1.88	1.72	1.53
L fixed	1.19	0.561	0.883	0.64	0.733	0.438	0.551	0.66	0.852
M fixed	1.43	0.745	0.785	0.708	0.929	0.592	0.695	0.869	0.722
N fixed	0.548	0.668	0.974	1.04	1.36	1.32	0.995	1.06	0.97
P fixed	0.286	0.212	0.554	1.11	1.11	0.736	0.821	1.05	0.798
Q fixed	1.12	0.583	0.839	0.986	0.999	1.28	0.842	0.927	0.878
R fixed	2.06	4.08	2.24	1.99	2.16	3.2	4.05	1.67	1.75
V fixed	1.31	0.596	0.754	0.715	0.593	0.447	0.466	0.716	0.847
W fixed	0.831	0.669	1.05	1	0.61	1.02	0.786	1.18	1.12
Y fixed	1.07	1.81	1.16	0.753	0.94	0.696	0.824	0.878	0.857
pThr fixed	0.833	0.36	0.641	0.773	0.411	0.691	0.644	0.881	0.699
pTyr fixed	0.574	0.268	0.811	0.593	0.751	0.641	0.847	0.869	1.09

PRKCZ, construct: Full length, human (from UniProt Q05513)
relative phosphorylation
Conditions	at +1	at +2	at +3	at +4	at -1	at -2	at -3	at -4	at -5
A fixed	0.673	0.759	0.778	1	1.16	0.809	0.78	1.13	1.32
D fixed	0.193	0.206	0.324	0.596	0.387	0.399	0.425	0.666	0.79
E fixed	0.293	0.203	0.319	0.563	0.375	0.355	0.437	0.661	0.732
F fixed	1.37	0.662	0.927	0.827	0.468	1	0.842	0.827	1.23
G fixed	1.1	0.52	1.07	1.07	1.21	1.45	1.28	1.57	1.52
H fixed	0.752	1.35	1.33	1.35	1.06	1.07	1.08	1.03	1.08
I fixed	0.868	0.646	0.646	0.608	0.259	0.288	0.378	0.468	0.533
K fixed	2.46	2.13	2.15	2.05	3.12	1.18	1.91	1.29	1.15
L fixed	0.768	0.577	0.834	0.64	0.457	0.47	0.535	0.59	0.803
M fixed	1.42	0.912	0.759	0.706	0.755	0.731	0.659	0.783	0.694
N fixed	0.832	0.908	0.975	1.08	1.26	1.19	1.11	1.4	1.25
P fixed	0.344	0.512	0.706	1.17	0.986	1.16	1.1	1.45	1.12
Q fixed	1.23	0.916	0.978	1.14	1.19	0.983	1.08	1.04	0.788
R fixed	2.39	4.07	2.08	1.34	2.43	2.99	3.2	1.45	1.31
V fixed	0.844	0.682	0.671	0.703	0.406	0.342	0.415	0.483	0.607
W fixed	0.61	0.803	1.28	1.13	0.579	0.973	0.909	1.33	1.23
Y fixed	0.841	1.14	1.17	1.01	0.89	1.61	0.855	0.824	0.837
pThr fixed	0.461	0.391	0.519	0.651	0.314	0.632	0.696	0.847	0.985
pTyr fixed	0.363	0.396	0.623	0.538	0.451	0.621	0.831	0.761	0.857
